We go through 2 molecules from paper doi:10.1101/2023.01.13.523903 (bioRxiv, 2023).

This experiment has as its target Myc-DDK tagged human CD2-associated protein (human, UniProt Q9Y5K6 1-639). Kind of experiment: peptide or protein array.

Myc-DDK tagged human CD2-associated protein, sequence (Q9Y5K6 whole entry): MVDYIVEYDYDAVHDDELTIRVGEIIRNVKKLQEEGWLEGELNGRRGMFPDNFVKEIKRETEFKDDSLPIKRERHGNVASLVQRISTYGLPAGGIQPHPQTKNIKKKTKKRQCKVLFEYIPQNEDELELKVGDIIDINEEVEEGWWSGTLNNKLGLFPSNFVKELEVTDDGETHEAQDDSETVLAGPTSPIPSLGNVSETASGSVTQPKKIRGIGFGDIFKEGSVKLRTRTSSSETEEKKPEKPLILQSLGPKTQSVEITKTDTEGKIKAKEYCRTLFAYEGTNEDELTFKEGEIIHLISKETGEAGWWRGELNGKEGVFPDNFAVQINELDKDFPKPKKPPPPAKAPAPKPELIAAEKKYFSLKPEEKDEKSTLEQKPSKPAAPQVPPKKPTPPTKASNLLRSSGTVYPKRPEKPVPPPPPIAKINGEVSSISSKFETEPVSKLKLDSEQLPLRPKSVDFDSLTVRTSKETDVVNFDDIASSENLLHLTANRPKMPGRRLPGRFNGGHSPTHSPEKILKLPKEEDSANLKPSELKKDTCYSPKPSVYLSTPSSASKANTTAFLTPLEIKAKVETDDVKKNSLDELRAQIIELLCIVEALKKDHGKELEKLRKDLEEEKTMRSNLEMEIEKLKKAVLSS

B1: TKS4 peptide 188 (peptide)
peptide: EAPQQRPVVPPRRPP
B1: the binding result is listed as “binds”.

B2: TKS4 peptide 189 (peptide)
peptide: QRPVVPPRRPPPPKK
As for B2, the binding result is on record as “binds”.
